Reference: US20200055920A1 (published 2020)
Read-outs that look alike come from different tables or passages of the source. One block for each molecule: values may come before it.

Experiments:
Experiment in all cases: Biacore SPR; receptor-Fc captured by anti-Fc antibody, ligand injected
[1] = target: T1, BMP9 (UniProt Q9UK05 320-429)
T1 construct: also called GDF2
T1 sequence (looked up): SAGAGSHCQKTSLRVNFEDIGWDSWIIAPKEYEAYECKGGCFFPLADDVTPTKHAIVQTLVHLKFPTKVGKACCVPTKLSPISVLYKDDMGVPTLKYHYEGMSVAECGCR
Method: (§1) Ligands were injected and allowed to flow over the captured receptor protein.

[2] = target: T2, BMP10 (UniProt O95393 317-424)
T2 sequence (looked up): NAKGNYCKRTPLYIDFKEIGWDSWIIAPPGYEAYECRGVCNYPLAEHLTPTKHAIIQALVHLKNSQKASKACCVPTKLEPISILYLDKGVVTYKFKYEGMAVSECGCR

[3] = target: T3, GDF6 (UniProt Q6KF10 336-455, limits assumed)
T3 construct: also called BMP13
T3 sequence (looked up): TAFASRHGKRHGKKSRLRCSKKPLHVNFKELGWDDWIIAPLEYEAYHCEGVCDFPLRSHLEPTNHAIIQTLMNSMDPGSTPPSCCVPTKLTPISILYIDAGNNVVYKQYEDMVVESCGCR
Method: as §1

[4] = target: T4, GDF5 (UniProt P43026 382-501, limits assumed)
T4 construct: also called BMP14
T4 sequence (looked up): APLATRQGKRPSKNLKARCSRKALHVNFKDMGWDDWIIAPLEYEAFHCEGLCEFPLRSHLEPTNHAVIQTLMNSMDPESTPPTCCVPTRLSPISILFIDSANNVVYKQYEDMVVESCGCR
Method: as §1

[5] = target: BMP2 (UniProt P12643 283-396)
Sequence of BMP2 (P12643 283-396 limits assumed): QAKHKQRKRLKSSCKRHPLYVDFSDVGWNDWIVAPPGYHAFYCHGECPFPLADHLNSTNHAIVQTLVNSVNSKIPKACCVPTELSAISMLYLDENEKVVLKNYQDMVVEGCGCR

[6] = target: T5, BMP6 (UniProt P22004 382-513, limits assumed)
T5 sequence (looked up): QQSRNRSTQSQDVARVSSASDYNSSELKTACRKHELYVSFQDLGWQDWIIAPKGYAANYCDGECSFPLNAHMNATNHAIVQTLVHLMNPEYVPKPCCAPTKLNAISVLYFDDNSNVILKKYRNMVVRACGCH

[7] = target: T6, GDF7 (UniProt Q7Z4P5 322-450, limits assumed)
T6 construct: also called BMP12
T6 sequence (looked up): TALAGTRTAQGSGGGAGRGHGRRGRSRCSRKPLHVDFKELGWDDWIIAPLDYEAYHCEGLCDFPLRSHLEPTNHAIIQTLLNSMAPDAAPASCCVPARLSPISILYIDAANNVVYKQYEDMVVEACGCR

[8] = target: T7, BMP4 (UniProt P12644 293-408)
T7 sequence (looked up): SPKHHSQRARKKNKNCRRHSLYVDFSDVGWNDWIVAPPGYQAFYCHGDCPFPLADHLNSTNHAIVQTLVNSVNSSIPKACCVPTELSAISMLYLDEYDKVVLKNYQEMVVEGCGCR

[9] = target: T8, BMP7 (UniProt P18075 293-431)
T8 construct: also called osteogenic protein-1; OP-1
T8 sequence (looked up): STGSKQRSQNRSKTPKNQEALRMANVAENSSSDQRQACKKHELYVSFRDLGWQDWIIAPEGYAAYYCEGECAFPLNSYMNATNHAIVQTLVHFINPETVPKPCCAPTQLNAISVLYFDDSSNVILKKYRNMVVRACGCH

[10] = target: T9, BMP5 (UniProt P22003 317-454, limits assumed)
T9 sequence (looked up): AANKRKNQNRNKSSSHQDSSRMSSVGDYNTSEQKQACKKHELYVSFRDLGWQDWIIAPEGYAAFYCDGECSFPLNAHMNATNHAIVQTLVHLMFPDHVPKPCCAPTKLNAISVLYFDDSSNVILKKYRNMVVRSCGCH

[11] = target: T10, GDF11 (UniProt O95390 299-407)
T10 construct: also called BMP11
T10 sequence (looked up): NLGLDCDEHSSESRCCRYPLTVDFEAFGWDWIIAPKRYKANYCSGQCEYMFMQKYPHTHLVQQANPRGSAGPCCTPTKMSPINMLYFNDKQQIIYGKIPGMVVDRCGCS
Method: as §1

[12] = target: T11, Activin B (UniProt P09529 293-407)
T11 construct: also called βBβB
T11 sequence (looked up): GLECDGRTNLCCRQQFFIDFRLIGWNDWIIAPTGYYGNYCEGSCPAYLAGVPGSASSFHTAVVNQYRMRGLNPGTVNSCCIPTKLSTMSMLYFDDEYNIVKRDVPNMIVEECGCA
Method: as §1

[13] = target: T12, Activin A (UniProt P08476 311-426)
T12 construct: also called βAβA
T12 sequence (looked up): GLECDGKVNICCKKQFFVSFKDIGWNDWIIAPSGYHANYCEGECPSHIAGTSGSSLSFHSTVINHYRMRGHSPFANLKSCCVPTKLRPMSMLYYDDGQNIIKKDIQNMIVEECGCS
Method: as §1

[14] = target: T13, GDF8 (UniProt O14793 267-375)
T13 construct: also called myostatin; growth and differentiation factor-8
T13 sequence (looked up): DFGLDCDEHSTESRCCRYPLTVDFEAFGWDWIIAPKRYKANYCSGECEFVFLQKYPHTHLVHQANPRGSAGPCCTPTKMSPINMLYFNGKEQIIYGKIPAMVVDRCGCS
Method: as §1

[15] = target: T14, GDF3 (UniProt Q9NR23 251-364)
T14 construct: also called VGR2
T14 sequence (looked up): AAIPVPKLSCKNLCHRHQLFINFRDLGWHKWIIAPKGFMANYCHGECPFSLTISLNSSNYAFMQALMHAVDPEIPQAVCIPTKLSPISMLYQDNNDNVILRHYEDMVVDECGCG
Method: as §1

[16] = target: T15, BMP15 (UniProt O95972 268-392)
T15 construct: also called GDF9b
T15 sequence (looked up): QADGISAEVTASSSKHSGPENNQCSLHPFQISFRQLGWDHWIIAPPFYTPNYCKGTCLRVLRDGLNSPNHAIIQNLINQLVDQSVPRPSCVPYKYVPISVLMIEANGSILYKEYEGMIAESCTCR
Method: A Biacore™-based binding assay was used to compare ligand binding selectivity of the single-arm BMPRII-Fc heterodimeric complex described above with that of an BMPRII-Fc homodimeric complex. The single-arm BMPRII-Fc and homodimeric BMPRII-Fc were independently captured onto the system using an anti-Fc antibody. Ligands were injected and allowed to flow over the captured receptor protein.

[17] = target: T16, TGFβ1 (UniProt P01137 279-390)
T16 construct: also called TGF-beta1
T16 sequence (P01137 279-390 limits assumed): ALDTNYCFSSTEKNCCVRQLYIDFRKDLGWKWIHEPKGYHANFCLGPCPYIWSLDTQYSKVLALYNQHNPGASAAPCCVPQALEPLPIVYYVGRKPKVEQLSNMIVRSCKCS
Method: as §1

[18] = target: T17, TGFβ3 (UniProt P10600 301-412)
T17 construct: also called TGF-beta3
T17 sequence (looked up): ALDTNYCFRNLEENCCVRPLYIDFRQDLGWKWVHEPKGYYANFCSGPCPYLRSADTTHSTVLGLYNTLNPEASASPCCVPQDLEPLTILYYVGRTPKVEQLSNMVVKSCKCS
Method: as §1

[19] = target: T18, TGFβ2 (UniProt P61812 303-414)
T18 construct: also called TGF-beta2
T18 sequence (looked up): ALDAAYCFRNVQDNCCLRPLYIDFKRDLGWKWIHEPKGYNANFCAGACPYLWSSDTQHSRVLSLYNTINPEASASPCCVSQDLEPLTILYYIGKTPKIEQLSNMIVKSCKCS
Method: as §1

[20] = target: T5, BMP6; remark: listed apart in the source
Method: as §1

[21] = target: T2, BMP10; remark: listed apart in the source
Method: as §1

Molecule: ALK1-Fc homodimer (Fc fusion)
- Kd [1]: 0.016 nM
- koff [1]: 0.00013 s⁻¹
- kon [1]: 7.9e+06 M⁻¹ s⁻¹
- Kd [2]: 0.006 nM
- koff [2]: 0.00011 s⁻¹
- kon [2]: 1.7e+07 M⁻¹ s⁻¹

Molecule: ActRIIA-Fc homodimer (Fc fusion)
- Kd [11]: 0.028 nM
- koff [11]: 0.00072 s⁻¹
- kon [11]: 2.6e+07 M⁻¹ s⁻¹
- Kd [12]: 0.025 nM
- koff [12]: 0.0002 s⁻¹
- kon [12]: 7.9e+06 M⁻¹ s⁻¹
- Kd [13]: 0.045 nM
- koff [13]: 0.00062 s⁻¹
- kon [13]: 1.4e+07 M⁻¹ s⁻¹
- Kd [14]: 0.099 nM
- koff [14]: 0.0014 s⁻¹
- kon [14]: 1.4e+07 M⁻¹ s⁻¹
- Kd [10]: 1.1 nM
- koff [10]: 0.0045 s⁻¹
- kon [10]: 4e+06 M⁻¹ s⁻¹
- Kd [2]: 0.086 nM
- koff [2]: 0.0025 s⁻¹
- kon [2]: 2.9e+07 M⁻¹ s⁻¹

B1: single-arm ActRIIB-Fc heterodimeric complex (Fc fusion)
chain 1: GRGEAETRECIYYNANWELERTNQSGLERCEGEQDKRLHCYASWRNSSGTIELVKKGCWLDDFNCYDRQECVATEENPQVYFCCCEGNFCNERFTHLPEAGGPEVTYEPPPTAPTGGGTHTCPPCPAPELLGGPSVFLFPPKPKDTLMISRTPEVTCVVVDVSHEDPEVKFNWYVDGVEVHNAKTKPREEQYNSTYRVVSVLTVLHQDWLNGKEYKCKVSNKALPAPIEKTISKAKGQPREPQVYTLPPSRKEMTKNQVSLTCLVKGFYPSDIAVEWESNGQPENNYKTTPPVLKSDGSFFLYSKLTVDKSRWQQGNVFSCSVMHEALHNHYTQKSLSLSPGK
chain 2: SNTKVDKRVTGGGTHTCPPCPAPELLGGPSVFLFPPKPKDTLMISRTPEVTCVVVDVSHEDPEVKFNWYVDGVEVHNAKTKPREEQYNSTYRVVSVLTVLHQDWLNGKEYKCKVSNKALPAPIEKTISKAKGQPREPQVYTLPPSREEMTKNQVSLTCLVKGFYPSDIAVEWESNGQPENNYDTTPPVLDSDGSFFLYSDLTVDKSRWQQGNVFSCSVMHEALHNHYTQKSLSLSPGK
notes: The C-terminal lysine may optionally be removed; also called ActRIIB-Fc:Fc heterodimer; single-arm ActRIIB-Fc:Fc
- Kd [20]: 0.69 nM
- koff [20]: 0.029 s⁻¹
- kon [20]: 4.2e+07 M⁻¹ s⁻¹
- Kd [11]: 0.02 nM
- koff [11]: 0.00072 s⁻¹
- kon [11]: 3.6e+07 M⁻¹ s⁻¹
- Kd [12]: 0.12 nM
- koff [12]: 0.00042 s⁻¹
- kon [12]: 3.5e+06 M⁻¹ s⁻¹
- Kd [13]: 0.099 nM
- koff [13]: 0.003 s⁻¹
- kon [13]: 3e+07 M⁻¹ s⁻¹
- Kd [15]: 12 nM
- koff [15]: 0.013 s⁻¹
- kon [15]: 1.1e+06 M⁻¹ s⁻¹
- Kd [21]: 0.12 nM
- koff [21]: 0.0097 s⁻¹
- kon [21]: 8e+07 M⁻¹ s⁻¹
- binding result [1]: no binding
- Kd [14]: 0.29 nM
- koff [14]: 0.001 s⁻¹
- kon [14]: 3.5e+06 M⁻¹ s⁻¹

The next lines start with the values.

- Kd [3]: 40 nM
- koff [3]: 0.0013 s⁻¹
- kon [3]: 34000 M⁻¹ s⁻¹
- Kd [4]: 22 nM
- koff [4]: 0.011 s⁻¹
- kon [4]: 480000 M⁻¹ s⁻¹
- Kd [5]: 0.13 nM
- koff [5]: 8.9e-05 s⁻¹
- kon [5]: 680000 M⁻¹ s⁻¹
- Kd [6]: 35 nM
- koff [6]: 0.0049 s⁻¹
- kon [6]: 140000 M⁻¹ s⁻¹
- Kd [7]: 12 nM
- koff [7]: 0.0027 s⁻¹
- kon [7]: 220000 M⁻¹ s⁻¹
- Kd [8]: 0.178 nM
- koff [8]: 5.3e-05 s⁻¹
- kon [8]: 300000 M⁻¹ s⁻¹
- Kd [9]: 15 nM
- koff [9]: 0.018 s⁻¹
- kon [9]: 1.2e+06 M⁻¹ s⁻¹
- Kd [10]: 70 nM
- koff [10]: 0.002 s⁻¹
- kon [10]: 29000 M⁻¹ s⁻¹
Molecule: ALK3-Fc homodimer (Fc fusion)

- Kd [11]: 0.002 nM
- koff [11]: 0.00011 s⁻¹
- kon [11]: 5e+07 M⁻¹ s⁻¹
- Kd [12]: 0.02 nM
- koff [12]: 0.0001 s⁻¹
- kon [12]: 5.1e+06 M⁻¹ s⁻¹
- Kd [13]: 0.019 nM
- koff [13]: 0.00023 s⁻¹
- kon [13]: 1.2e+07 M⁻¹ s⁻¹
- Kd [15]: 1.5 nM
- koff [15]: 0.0022 s⁻¹
- kon [15]: 1.4e+06 M⁻¹ s⁻¹
- Kd [1]: 0.078 nM
- koff [1]: 0.0011 s⁻¹
- kon [1]: 1.4e+07 M⁻¹ s⁻¹
- Kd [14]: 0.28 nM
- koff [14]: 0.00023 s⁻¹
- kon [14]: 830000 M⁻¹ s⁻¹
- Kd [6]: 0.21 nM
- koff [6]: 0.0068 s⁻¹
- kon [6]: 3.2e+07 M⁻¹ s⁻¹
- Kd [2]: 0.011 nM
- koff [2]: 0.00026 s⁻¹
- kon [2]: 2.3e+07 M⁻¹ s⁻¹
Molecule: ActRIIB-Fc homodimer (Fc fusion)

- Kd [3]: > 88 nM
- Kd [12]: 3.8 nM
- koff [12]: 0.075 s⁻¹
- kon [12]: 2e+07 M⁻¹ s⁻¹
- Kd [1]: 2.1 nM
- koff [1]: 0.026 s⁻¹
- kon [1]: 1.2e+07 M⁻¹ s⁻¹
- Kd [16]: 0.28 nM
- koff [16]: 0.0028 s⁻¹
- kon [16]: 9.9e+06 M⁻¹ s⁻¹
- Kd [5]: > 2000 nM
- Kd [6]: > 8.9 nM
- Kd [9]: > 38 nM
- Kd [2]: 0.098 nM
- koff [2]: 0.0025 s⁻¹
- kon [2]: 2.6e+07 M⁻¹ s⁻¹
Molecule: BMPRII-Fc homodimer (Fc fusion)

- Kd [17]: 0.025 nM
- koff [17]: 0.0011 s⁻¹
- kon [17]: 4.2e+07 M⁻¹ s⁻¹
- Kd [18]: 0.099 nM
- koff [18]: 0.0059 s⁻¹
- kon [18]: 5.9e+07 M⁻¹ s⁻¹
- Kd [19]: > 44 nM
Molecule: TGFβRII-Fc homodimer (Fc fusion)
